The values below come from article PMC3329491, “Insight on an Arginine Synthesis Metabolon from the Tetrameric Structure of Yeast Acetylglutamate Kinase” (PLoS ONE, 2012).

Data set [1] concerns the molecule itself. As to the kind of experiment: SEC; analytical size exclusion chromatography on Superdex 200 10/300, 24°C, 50 mM Hepes pH 7.5/0.25 M NaCl; elution volume against protein standards. (In gel filtration, larger molecules generally elute earlier.)
Data set [2] deals with the molecule itself. Kind of data set: crystal structure; truncated yNAGK, space group P212121, four subunits in the asymmetric unit; with NAG, with NAG and arginine, or ligand-free; grown at 4°C, 50 mM Na acetate pH 4.6, 0.2 M Na-malonate, 2% PEG-8K.

B1: complete mature yeast N-acetyl-L-glutamate kinase (yNAGK), residues 58-513 (enzyme, Saccharomyces cerevisiae, UniProt Q01217 58-513, looked up)
chain: VSSTNGFSATRSTVIQLLNNISTKREVEQYLKYFTSVSQQQFAVIKVGGAIISDNLHELASCLAFLYHVGLYPIVLHGTGPQVNGRLEAQGIEPDYIDGIRITDEHTMAVVRKCFLEQNLKLVTALEQLGVRARPITSGVFTADYLDKDKYKLVGNIKSVTKEPIEASIKAGALPILTSLAETASGQMLNVNADVAAGELARVFEPLKIVYLNEKGGIINGSTGEKISMINLDEEYDDLMKQSWVKYGTKLKIREIKELLDYLPRSSSVAIINVQDLQKELFTDSGAGTMIRRGYKLVKRSSIGEFPSADALRKALQRDAGISSGKESVASYLRYLENSDFVSYADEPLEAVAIVKKDTNVPTLDKFVCSDAAWLNNVTDNVFNVLRRDFPALQWVVSENDANIAWHFDKSQGSYLKGGKVLFWYGIDDINTISELVENFVKSCDTASTLNSSASS
modifications: for crystallization only: surface-exposed lysine residues reductively dimethylated
notes: N-acetyl-L-glutamate kinase of Saccharomyces cerevisiae, made by processing of the polyprotein precursor encoded by ARG5,6 (Uniprot Q01217); Amplified from pYB3 and inserted into pTrc99a; Methylated protein is stated for crystal NAGK1; Nothing says that the protein of the size exclusion run was methylated; also called complete yNAGK; complete mature yNAGK; source: E. coli BL21 (DE3), purified …
One may read the stoichiometry N as a count of units in the complex or per binding partner. For the protein B1, the “stoichiometry N” value in data set [1] was found to be 4.

B2: truncated yNAGK spanning residues 58 to 356 (AAK domain, lacking the C-terminal DUF619 domain) (domain or fragment, Saccharomyces cerevisiae, UniProt Q01217 58-356, looked up)
chain: VSSTNGFSATRSTVIQLLNNISTKREVEQYLKYFTSVSQQQFAVIKVGGAIISDNLHELASCLAFLYHVGLYPIVLHGTGPQVNGRLEAQGIEPDYIDGIRITDEHTMAVVRKCFLEQNLKLVTALEQLGVRARPITSGVFTADYLDKDKYKLVGNIKSVTKEPIEASIKAGALPILTSLAETASGQMLNVNADVAAGELARVFEPLKIVYLNEKGGIINGSTGEKISMINLDEEYDDLMKQSWVKYGTKLKIREIKELLDYLPRSSSVAIINVQDLQKELFTDSGAGTMIRRGYKLVK
notes: A Se-Met-substituted form was used for phasing only (not deposited); also called truncated AAK; yNAGK lacking its C-terminal domain; source: E. coli BL21 (DE3), purified (HisTrap); not shown: MGH6 His-tag, N-terminal, kept
Consider B2, for which the “stoichiometry N” value in data set [2] amounted to 4.
